Results on 30 sequences are retold here after the nanobody polyreactivity screen of Harvey et al. (2022).

This data set is described as follows: yeast display, Sf9 membrane polyspecificity reagent, FACS + sequencing; frameworks hold sequencing errors. A digest of the protocol: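 Using colony PCR, genes from sorted yeast display clones were amplified, then sequenced on MiSeq at 2 × 250 and filtered by CDR length. The clones had been stained with 10% biotinylated, detergent-solubilized Sf9 membrane reagent for 1 hour at 4 °C and sorted by FACS into low and high (top ~1%) gates on anti-HA and streptavidin fluorescence. Polyreactivity labels come from the gate of origin.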
As to “QVQLVESGGGLVQAGGSLRLSCAASGITFVSNVMGWYRQAPGKEREFVAAITGRGDSTYADSVKGRFTISRDNAKNTVYLQMNSLKPEDTAFYYCNRESDIYSFVAMNYWGQGTQVTVSS”, the “polyreactivity (PSR sort gate)” value is reported as “low polyreactivity”. The entry for “QVQLVESGGGLVQAGGSLRLSCAASGFTFVRYAMGWYRQAPGKEREFVAGITRSGGSTYYADSVKGRFTISRDNAKNTVYLQMNSLKPEDTAVYYCNRAYYSYHDQPYEYWGQGTQVSVSS” is “high polyreactivity”; for “QVQLVESGGGLVQAGGSLRLSCAASGRTFFGNAKGWYRQAPGKERELVASISTRGGSTYYADSVKGRFTISRDNAKNTVYLQMNSLKPEDTAVYYCAKRGRDRRIYGYWGQGTQVTVSS” it is “high polyreactivity”. “QVQLVETGGGIVQAGGRLRLTCAASGSSFYSYAMGWYRQAPGKEMELVAAITTSGGNTLYADSVKGRFTISRDNAKNTVDLQMNSLKPEDTADYYCAADVFRGGDYEYDYWGQGTQVTVSS”: the “polyreactivity (PSR sort gate)” value is reported as “low polyreactivity”. For the sequence “QVQLVESGGGLVQAGGSLRLSCAASGRIFFPYAMGWYRQAPGKEREFVAAITTGCGSTYYADSVKGRFTISRDNAKNTVYLQMNSLKPEDTAVYYCAKRTYSRKFRGAYNYWGQGTQVTVSS”, the “polyreactivity (PSR sort gate)” value is on record as “high polyreactivity”. As for “QVQLVESGGGLVQSGGSLLLSCAASGFTFGRYAMAWYRQAPGKERELVAAIRRSGGSTYYADSVKGRFTISRDNAKNTVYLQMNSRKPEDTAVFYCAAVRWWTYGNYDYWGQGTQVTVSS”, the entry is “high polyreactivity”.

With “QVQLVESGGGLVKAGGSLRLSCAASGSTFERYAMGCYRQAPGKEMELVAAINWSGGGTYYADSVKGRFTISRDNAKNTVYLQMNSLKPVDTAVYYCAADSGTVVFSLWWYEYYYWGQGTQVTVSS”, the “polyreactivity (PSR sort gate)” value is on record as “low polyreactivity”. As for “QVQLVESGGGIVQAGGSLRLRWAASGLTSVRNAMGWYRQAPGKERELVAGISWSGGRTYYADSVKGRFTISRDNEKNTVYLQMNSLKPEDTGVYYCNKVRAYYTQEGSWGQGTQVTVSS”, the entry is “high polyreactivity”. The entry for “QVQLEESGGGLVKAGGSLSLSCAASGRTFYSYAMGWYRQAPGKERELVAAISAGGSTYYADSVQGRFTSSRDNAMNTLNLQMTSLKPEDTAVYYCAATYSYYYARYHYWGQGTQVTVSS” is “high polyreactivity”; for “QVQLVESGGGLVQAGGSLRLSCAASGSTFYWYTMGWYRQAPGKERELVATITSVGRTNYADSVKGRFTISRDNAKNTVYLQMNSLKPEDTAVYYCAADSYSYRYYYWGQGTQVTVSS” it is “high polyreactivity”; for “QVQLVESGGGLVQAGGSLRLSCAASGSTILYNTMGWYRQAPGKERELVATITSRGDRTYYADSVKGRFTISRDNAKNTVYLQMNSLKPEDTAVDYCAADRTDFWPYDYWGQGTQVTVSS” it is “low polyreactivity”. Consider “QVQLEESGGGLVQAGGSLRLSWAASGRTIAAYAMGWYRQAPGKERELVAAISIGGSTNYADSVKGRFTISRDNAKNTVYLQMNSLKPEDTAVYYCAAPRRRYLRARIRYEYWGQGTQVTVSS”, for which the “polyreactivity (PSR sort gate)” value is listed as “high polyreactivity”.

As to “QVQLVESGGGLVQAGGSLRLSCASSGSIFRRNVMGWYRQAPGKERELVASITGRGGSTYYADSVKGRFTISRDNAKNTVYLQMNSLKPEDTAVYYSNADSLRTYDWYTRTVGYGYWVQGTQVTVSS”, the “polyreactivity (PSR sort gate)” value is on record as “high polyreactivity”. As for “QVQLVESGGGLVQAGGSLRLSCAASGIIFKVNVMGWYRQAPGKERELVAAISWSGGSTYYADSVKGRFTISRDNAKNTFYLQMNILKPEDTAVYYCAAYSYVYGERYYFWGQGTQLTVSS”, the entry is “high polyreactivity”.

For “QVQLVESGGGLVQAGGSLRLSCAASGLTFWLYAMGWYRPAPGKERELVAAITRSGGSTSYADSVKGRFTISRDNAKNTVYLQMNSLKPEDTAVYYCNADSPGYTAVRLVEFDYWGQGTQVTVSS”, the “polyreactivity (PSR sort gate)” value is on record as “low polyreactivity”. As for “QVQLVESGGGLVQAGGSLRLSCAASGLTFNYYAMGWSRPAPGKERELVAAISSDGRTDYADSVKGRFTISRDNAKNTVYLQMNSLKPEDTAVSYCAASWYRWGKSWRQYDYWGQGTQVTVSL”, the entry is “low polyreactivity”. As for “QVQLVESGGGLVQAGGSLRLSCAASGNTINVNTMGWYRQAPGKERELVAAISKRGGSTYYADSVKGRFTISRDNAKNTVYLQMNSLKPEDTAVYYCAKQVSLPRYHYGSAPYGYWGQGTQVTVSS”, the entry is “high polyreactivity”. Turning to “QVQLVESGGGLVQAGGSLRLSCAASGNIFKSYTMGWYRQAPGKERELVAAITSGGRTNYADSVKGRFTISRDNAKNTVYLQMNSLKPEDTAVYYCAAKHFRWGTGDYWGQGTQVTVSS”, the “polyreactivity (PSR sort gate)” value is on record as “high polyreactivity”. As for “KVQLVESGGGLVQAGGSLRLSCAASGSIISPNAMGWYRQAPGKERELVAGITQSGGSTYYADSVKGRFTISRDNAKNTVYLQMNSLKPEDTAVYYCSVDFILGWYSYYYWGQGTQVTVSS”, the entry is “high polyreactivity”; as for “QVQLVESGGGLVQAGGSLRLSCAASGLIFNTYAMGWYRQAPGKDRELVAAITDGGGTNYADSVKGRFTISRDNAKNTVYLQMNSLKPEDTAVYYCAARLASWPLTYDFQWYEYWGQGTQVTVSS”, “low polyreactivity”.

Take “QVQLVESGGGLVQAGGSLRLSCAASGITFYRNAMGWYRQAPGKERELVAAISRRGGITRYADSVKGRFTISRDNAKNTVYLQMNSLKPEDTAVYYCAKAIGSTALRRATEDYWGQGTQVTVSS”: the “polyreactivity (PSR sort gate)” value is given as “high polyreactivity”. As for “QVQLVESGGGLVQAGGSLRLSCAASGSTFDNYAMGWYRQAPGKERELVAAINSRGGRTYYADSVKGRFTISRDNAKNTVYLQMNSLKPDDTAVYYCAAVGATHRFDYWGQGTQVTVSS”, the entry is “high polyreactivity”. On to “QVQLVESGGGLVQAGGSLRLSCAASGRKFNGYDMGWYRQAPGKERELVAPINNSGGTDNTYYADSVKGRFTISRDNAKNTVYLQMNSLKPEDTAVYYCNAGPVWDQWWLYYYWGQGTQVTVSS”, for which the “polyreactivity (PSR sort gate)” value is “high polyreactivity”.

As to “QVQLVESGGGLVQAGGSIRLSCAASGSTFYAYAMGWYRQAPGKERELVAAIDTGGSTYYADSVKGRFTISRDNAKNTVYLQMNSLKPEDTAVYYCNAVVDTTEYPYEYDYWGQGTQVTVSS”, the “polyreactivity (PSR sort gate)” value is “low polyreactivity”. As for “QVQLVESGAGLVQAGGSLRLSCAASGSIFEYYAMGWYRQAPGKERELVAAISSGGPTYYADSVKGRFTISRDNAKNTVYLQMNSLKPEDTAVYYCNAALRYPDYDYWGQGTQVTVSS”, the entry is “low polyreactivity”; as for “QVQLVESGRGLVQAGGSLRLSCAASGSTISFYAMGWYRQAPGKERELVAAISFRGGRTYYADSVKGRFTISRDNAKNTVYLQMNSLKPEDTAVYYCNAERYYRYWDKQEDYWGQGTHVTVSS”, “high polyreactivity”; as for “QVQLVESGGGLVQAGGSLRLTCAASGITLGFYAMGWYRQAPGKERELVAAISGRGGSTYYADSVKGRFTISRDNAKNTVYLKMNSLKPEDTPVYYCNALGYYQLVTPFYYWGQGTQVTVSS”, “high polyreactivity”. As for “QVQLVESGGGLVQAGGSLRLSCAASGNIFNEYAMGWYRQAPGKERELVAAITWSAGSTYYADSVKGRFTISRDNAKNTVYLQMNSLKPEDTAVYYCNAEYTWHRGYDYWGQGTQVTVSS”, the entry is “low polyreactivity”; as for “QVQLVESGGGLVQAGGSLRLSCAASGFIFGYYTMGWYRQAPGKERELVAGISYSGGSTYYADSVKGRFTISRDNAKNTVYLQMNSLKPEDTAVYYCNRADYRASYSGQGSYDYWGQGTQVTVSS”, “high polyreactivity”; as for “QVQLVESGGGLVQAGGSLRLSCAASGIIFDTNAMGWYRPAPGKERELVAAITRSGGGTYYADSVKGRFSISRDNAKNTVYLQMNSLKPDDTAVYYCAARRQRDRYGYWGQGTQLTVSS”, “high polyreactivity”.
